Source: patent US10202593B2, “Evolved sortases and uses thereof” (President and Fellows of Harvard College, priority 2013, dated 2019)
Read-outs that look alike come from different tables or passages of the source.

Tested on: LSETG
Experiment: In vitro sortase kinetics HPLC assay, LSETG substrate
Type: biochemical
Protocol: See below for details on sortase expression and purification, and on the synthesis of Abz-LPETGK(Dnp)-CONH2 (SEQ ID NO: 19). […] Reactions were initiated with the addition of enzyme and incubated at 22.5° C. for 3 to 20 minutes before quenching with 0.5 volumes of 1 M HCl. Five to ten nmol of peptide from the quenched reactions were injected onto an analytical reverse-phase Eclipse XDB-C18 HPLC column (4.6×150 mm, 5 μm, Agilent Technologies) and chromatographed using a gradient of 10 to 65% acetonitrile with 0.1% TFA in 0.1% aqueous TFA over 13 minutes. Retention times under these conditions for the Abz-LPETGK(Dnp)-CONH2 (SEQ ID NO: 19) substrate, the released GKDnp peptide, and the Abz-LPETGGG-COOH (SEQ ID NO: 20) product were 12.8, 10.4, and 9.1 min, respectively. To calculate the percent conversion, the ratio of the integrated areas of the Abz-LPETGGG-COOH (SEQ ID NO: 20) and Abz-LPETGK(Dnp)-CONH2 (SEQ ID NO: 19) peptide Abs220 peaks was compared to a standard curve generated by mixing the product and starting peptide in known ratios. To determine […] and Km, reaction rates were fit to the Michaelis-Menten equation using OriginPro 7.0 software. All kinetics values reported represent the average of at least three measurements. Percent conversion was also calculated by using the ratio of the integrated areas of the GK(Dnp)-CONH2 and Abz-LPETGK(Dnp)-CONH2 peptide Abs355 peaks were compared directly (Example 5). To determine kcat and Km, LPETG, reaction rates were fit to the Michaelis-Menten equation using Microsoft Excel using the Solver add-in. To determine Km,GGG and KH, reaction rates were fit to the modified Michaelis-Menten, for which KH is as defined when KH<<Km,GGG.
Assays to determine eSrtA, eSrtA(2A-9) and eSrtA(4S-9) specificity were performed by preparing 10 μM stocks of Abz-LXEXGK(Dnp) (SEQ ID NO: 75) peptides in 300 mM Tris pH 7.5, 150 mM NaCl, 5 mM CaCl2, 5% v/v DMSO, and 100 mM Gly-Gly-Gly-COOH (GGG). Reactions were performed by adding eSrtA(2A-9) to a final concentration of 450 nM, eSrtA(4S-9) to a final concentration of 115 nM or eSrtA to a final concentration of 47.5 nM and a final volume of 100 μL, then incubating at 22.5° C. for 15 minutes. Reactions were quenched by the addition of 0.2 volumes of 5 M HCl, then were injected onto an analytical reverse-phase Eclipse XDB-C18 HPLC column (4.6×150 mm, 5 μm, Agilent Technologies) and chromatographed using a gradient of 10 to 65% acetonitrile with 0.1% TFA in 0.1% aqueous TFA over 13 minutes. Retention times under these conditions for the Abz-LPETGK(Dnp)-CONH2 (SEQ ID NO: 19) substrate, the released GKDnp peptide, and the Abz-LPETGGG-COOH (SEQ ID NO: 20) product were 12.8, 10.4, and 9.1 min, respectively, while the remaining Abz-LXEXGK(Dnp)-CONH2 (SEQ ID NO: 74) substrates varied in retention time between 9 and 13 minutes. To calculate the percent conversion, the ratio of the integrated areas of the GK(Dnp)-CONH2 and Abz-LPETGK(Dnp)-CONH2 (SEQ ID NO: 19) peptide Abs355 peaks were compared directly. Subsequent determination of kcat/Km and KH were performed as described for in vitro SrtA characterization.
The original pentamutant comprising the mutations P94R, D160N, D165A, K190E, and K196T is referred to as eSrtA. Sortase variants herein were evolved using eSrtA as the parent enzyme in the evolution experiments. In some cases, an evolved sortase comprises a N160K mutation instead of a D160N or a T196S mutation instead of a K196T. Parameters are reported with their standard deviations as determined from three technical replicates. kcat, Km and kcat/Km parameters were determined at 100 mM GGG concentration, while Km,GGG and KH parameters were determined at 1 mM concentration of the listed substrate.

[1] = Sub LSETG, 100 mM GGG, read-out: Km

Molecule | KH (1 mM LSETG) [µM] | Km (1 mM LSETG, read-out: Km,GGG) [µM] | Kcat (Hz) (Sub LSETG, 100 mM GGG) | Km [1] [µM]
eSrtA (protein) QAKPQIPKDKSKVAGYIEIPDADIKEPVYPGPATREQLNRGVSFAEENESLDDQNISIAGHTFIDRPNYQFTNLKAAKKGSMVYFKVGNETRKYKMTSIRNVKPTAVEVLDEQKGKDKQLTLITCDDYNEETGVWETRKIFVATEVK | 37.4 ± 3.4 | 337 ± 16 | 0.102 ± 0.001 | 533 ± 24
eSrtA(2A-9): P94R, S102C, A104H, E105D, K138P, K152I, N160K, K162H, T164N, D165A, K173E, I182V, K190E, T196S (protein) QAKPQIPKDKSKVAGYIEIPDADIKEPVYPGPATREQLNRGVCFHDENESLDDQNISIAGHTFIDRPNYQFTNLKAAKPGSMVYFKVGNETRIYKMTSIRKVHPNAVEVLDEQEGKDKQLTLVTCDDYNEETGVWESRKIFVATEVK | 26.0 ± 3.4 | 1270 ± 200 | 0.115 ± 0.007 | 331 ± 67
